Data from patent US20230087385A1, “Use of SAA, rSAA or inhibitors of SAA in the treatment of dysregulated inflammation” (LIKA ANTISEPSIS GBR, priority 2020, published 2023).

How the values were obtained:
[1] = test system: neutrophils; assay: Anti-inflammatory potential of SAA on neutrophils (oxidative burst, migration, myeloperoxidase release, O2-release); assay type: cell-based
Protocol: The anti-inflammatory potential of SAA on neutrophils has been confirmed for SAA at reported serum concentrations. […] However, at higher concentrations of more than 50 μg/ml, SAA was stimulating. In addition, O2-release was inhibited up to 0.1 μg/ml, but the O2-release was increased above that. Thus, SAA plays a dual role, it down-regulates inflammatory processes in lower concentration but, during the full APR, the action of SAA can be promoting.

[2] = Immunodiffusion of SAA-HDL containing acute phase serum with polyclonal anti-AA at different temperatures; assay type: physicochemical; conditions: added to normal human serum
Protocol: Immunodiffusion (ID) at different temperatures. The ID was performed in 1.5% Seakem Agarose in 0.03 M barbital buffer, pH 8.6 with the same reagents in each of the three plates a 6 wells (A-C). Top and bottom well contained AA (0.1 mg/ml), the middle well contained polyclonal rabbit anti-AA antibodies undiluted and the 4 side wells contained elevated SAA-HDL containing APS from 4 patients at 1/10 diluted. Plate A after diffusion over night at room temperature, plate B at 4° C. over night and plate C first at 4° over night as plate B at 4° C. followed by room temperature for 6 hs similar to plate A.
In FIG. 1A, one recognizes a line of identity of AA with all four patients' sera as if the SAA (probably SAA1 and SAA2) reaction were done with pure SAA. At 4° C. in FIG. 1B, however, there is no reaction with SAA-HDL in serum. This is due to the hiding of the AA-reactive parts of SAA through HDL. […] Therefore, the separation of SAA from HDL is temperature-dependent.

[3] = test system: human neutrophils; assay: Binding of SAA to human neutrophils
Source text: (§1) This was the first time that a function of SAA was blocked by a monoclonal AA antibody. The monoclonal antibody mc29 used probably also blocks the laminin-like domain (aa 29-33) and may also be participating partially with the RGD-like domain (aa 39-41). In addition, human neutrophils were exposed to full human APS at different temperatures. […] This indicated an irreversible structural change of SAA (or its fragments) during high fever, which is blocking SAA's return to the reversible binding to HDL. (This febrile temperature-that induced the aggregation of AA-antigenic proteins has also been noticed in vitro and documented in FIG. 2 at 38° C. and 40° C.). The possibly unfavorable consequences of these aggregates in humans or animals are unknown today.

[4] = test system: human neutrophils; assay: FMLP-induced oxidative burst of normal human neutrophils; assay type: cell-based; conditions: SAA at 0.1 μg/ml and 1.0 μg/ml
Source text: as §1

[5] = SAA at reported serum concentrations

Molecule: 83-104: SAA peptide aa 83-104 (NEWGRSGKDPNHFRPAGLPEKY; UniProt P0DJI8 101-122, looked up, fragment)
- contribution of SAA peptides to the inhibitory effect on neutrophils [1]: contributed to this inhibitory effect

Molecule: aa 1-14: SAA peptide aa 1-14 (RSFFSFLGEAFDGA; UniProt P0DJI8 19-32, looked up, fragment)
- contribution of SAA peptides to the inhibitory effect on neutrophils [1]: contributed to this inhibitory effect

B1: recombinant SAA2: recombinant serum amyloid A2 protein (SEQ ID NO: 2: human SAA2) (protein, UniProt P0DJI9 19-122, looked up)
Serum amyloid A-2 protein: RSFFSFLGEAFDGARDMWRAYSDMREANYIGSDKYFHARGNYDAAKRGPGGAWAAEVISNARENIQRLTGRGAEDSLADQAANKWGRSGRDPNHFRPAGLPEKY
- temperature-dependent immunodiffusion behavior as in FIG. 1 [2]: repeat exactly that behavior
- binding with human neutrophils [3]: Strong binding

B2: SAA: serum amyloid A protein, 12.5 kDa acute phase protein isolated from human serum (protein)
chain: RSFFSFLGEAFDGARDMWRAYSDMREANYIGSDKYFHARGNYDAAKRGPGGAWAAEVITDARENIQRFFGHGAEDS
- FMLP-induced oxidative burst of normal human neutrophils [4]: reduced, concentration-dependently
- migration of neutrophils [1, 5]: inhibited
- neutrophil myeloperoxidase release [1, 5]: inhibited
- oxidative burst of neutrophils [1, 5]: inhibited
- O2-release ([1]; above 0.1 μg/ml): increased
- effect on neutrophils at higher concentrations ([1]; more than 50 μg/ml): stimulating
- O2-release ([1]; up to 0.1 μg/ml): inhibited
- binding with human neutrophils [3]: Strong binding
